From the supplement of paper PMC10126150
± gives the standard deviation of the averaged measurements.

Tested on: ATP
Assay: switch fluorescence ratio, 500 uM ATP over buffer (Cy3 cluster intensity, sum of 5 cycles each) (fold (ratio)); higher = stronger signal-on switching upon ATP binding; sequences stand for … in TCGTCGGCAGCGTCAGATGTGTATAAGAGACAGTTTTTTTTTTTTTTTTTTTTTTTTT…TC
Conditions: aptamer strand: ATP DNA aptamer (quencher-CACCTGGGGGAGTATTGCGGAGGAAGG + anchor), 100 nM annealed; ATP concentration: 500 uM
Summary of the method: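 Cy3-labelled switching-strand clusters on a modified Illumina MiSeq flow-cell were annealed to 100 nM quencher-labelled ATP aptamer and imaged first in selection buffer, then after 15 min with 500 uM ATP at 22 °C. NaOH stripping and re-annealing separated each of five buffer/ATP cycles, and clusters outside 100-1000 RFU were excluded. The fluorescence ratio sums target-cycle Cy3 intensity over buffer-cycle Cy3 intensity per cluster and averages it per switch-domain sequence.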
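Note: ATP exposure 15 min at 22 °C before imaging.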

Sequence | switch fluorescence ratio
GCAAAGTGGA | 0.9773 ± 0.0047
GCAAATAGTT | 0.993 ± 0.024
GCAAATGAGT | 1.003 ± 0.0082
GCAAATGTGT | 0.969 ± 0.026
GCAACAGCAA | 1.04 ± 0.015
GCAACCCTAA | 1.02 ± 0.055
GCAACCGGTC | 1.054 ± 0.0041
GCAACCTGAG | 1.56 ± 0.14
GCAACTTATT | 0.983 ± 0.022
GCAAGAGATG | 1.01 ± 0.027
GCAAGAGTGA | 1.04 ± 0.038
GCAAGATGGG | 0.983 ± 0.015
GCAAGATTTA | 1.01 ± 0.019
GCAAGCTGCA | 1.016 ± 0.0087
GCAAGGGCTA | 1.04 ± 0.045
GCAAGGGGGT | 1.05 ± 0.053
GCAAGGGTGT | 1.153 ± 0.0013
GCAAGGGTTG | 1.01 ± 0.022
GCAAGTCATG | 1.03 ± 0.04
GCAAGTTGGT | 1 ± 0.017
GCAATGGGAA | 1.1 ± 0.019
GCAATTAAAT | 0.996 ± 0.036
GCAATTCCGG | 1.21 ± 0.035

Sequence | switch fluorescence ratio
GCAATTTCGC | 1.42 ± 0.58
GCAATTTTGT | 1.03 ± 0.015
GCACAAGATG | 1.0073 ± 0.00098
GCACATTTGC | 0.95 ± 0.079
GCACCGAAAA | 1.29 ± 0.4
GCACCGGCTA | 1.16 ± 0.23
GCACGGCGTA | 1.04 ± 0.038
GCACGGGGCT | 1.04 ± 0.018
GCACGGGGGT | 1.05 ± 0.045
GCACGTGCAG | 0.9955 ± 0.0041
GCACTCAGGA | 1.03 ± 0.04
GCACTCCAGG | 2.61 ± 0.22
GCACTCTGAG | 0.993 ± 0.029
GCACTGAAGG | 1.0196 ± 0.00041
GCAGAATTTG | 1.02 ± 0.031
GCAGAGGGCA | 1.01 ± 0.049
GCAGAGGTGG | 1.05 ± 0.037
GCAGCACGCG | 1.03 ± 0.031
GCAGCCATAA | 2.27 ± 0.16
GCAGCCGGGT | 0.991 ± 0.022
GCAGCGGGGA | 1.04 ± 0.017
GCAGCTGGCG | 1.04 ± 0.017
GCAGCTGGGT | 1.064 ± 0.0034

Sequence | switch fluorescence ratio
GCAGCTTGCA | 0.993 ± 0.018
GCAGGAAATG | 0.992 ± 0.011
GCAGGAAATT | 0.973 ± 0.014
GCAGGAGGAA | 0.991 ± 0.02
GCAGGAGTTG | 0.978 ± 0.087
GCAGGGAGCG | 0.978 ± 0.027
GCAGGGATCA | 0.9813 ± 0.0013
GCAGGGATGG | 0.985 ± 0.035
GCAGGGGATT | 1.01 ± 0.033
GCAGGGGGGA | 1.04 ± 0.05
GCAGGGGGGT | 1.01 ± 0.034
GCAGGGGTTT | 1.25 ± 0.48
GCAGGGTAAA | 0.986 ± 0.02
GCAGGGTCTG | 1.02 ± 0.083
GCAGGGTTTC | 0.997 ± 0.024
GCAGGTACGC | 1.05 ± 0.033
GCAGGTTGT | 1.009 ± 0.0021
GCAGTAATTT | 1.49 ± 0.62
GCAGTATAAT | 0.9932 ± 0.0099
GCAGTATGCT | 1.01 ± 0.062
GCAGTATTTG | 0.99057 ± 2.4e-05
GCAGTCCGTC | 1.06 ± 0.019
GCAGTGGGTA | 0.978 ± 0.016

Sequence | switch fluorescence ratio
GCAGTTAATC | 1.05 ± 0.026
GCAGTTGTGT | 0.9941 ± 0.0058
GCAGTTGTTC | 0.981 ± 0.037
GCAGTTTGGC | 1.01 ± 0.057
GCAGTTTTTG | 0.9746 ± 0.0056
GCATAATTTA | 0.9898 ± 0.0096
GCATAGGGGG | 1.03 ± 0.081
GCATATAAAC | 1.2 ± 0.17
GCATATGGCT | 1 ± 0.031
GCATATGTCG | 1.097 ± 0.0042
GCATCACGTA | 1.17 ± 0.024
GCATCAGGCG | 1.01 ± 0.02
GCATCGGGGG | 0.981 ± 0.037
GCATCTAGAT | 0.986 ± 0.018
GCATGAAACT | 1.03 ± 0.034
GCATGCGGTC | 1.01 ± 0.027
GCATGGAAAT | 0.985 ± 0.045
GCATGGTAGC | 0.994 ± 0.037
GCATGTAGTG | 0.9794 ± 0.005
GCATGTATAG | 1.015 ± 0.0046
GCATGTCGAT | 1.02 ± 0.023
GCATGTCTGC | 0.9862 ± 0.0093
GCATTAGTTT | 1.04 ± 0.012

Sequence | switch fluorescence ratio
GCATTATGTT | 0.987 ± 0.044
GCATTATTCG | 1.059 ± 0.0079
GCATTATTTG | 1.05 ± 0.02
GCATTCAGGG | 1.09 ± 0.14
GCATTCGGCT | 1.04 ± 0.069
GCATTCGGTT | 0.972 ± 0.039
GCATTCTCGT | 1.029 ± 0.0021
GCATTGAGGG | 1.04 ± 0.047
GCATTGGTAT | 0.981 ± 0.011
GCATTGTAGG | 0.972 ± 0.041
GCATTTCTTC | 1.03 ± 0.04
GCATTTGGTC | 1.01 ± 0.023
GCATTTTGAA | 1.02 ± 0.026
GCCAAACGGG | 1.13 ± 0.16
GCCAAAGCGG | 0.997 ± 0.014
GCCAACAGTG | 1.32 ± 0.12
GCCAATGGGG | 0.989 ± 0.026
GCCAATTAAT | 1.01 ± 0.012
GCCACAAATT | 1.01 ± 0.033
GCCAGCGTCC | 1.62 ± 0.83
GCCAGGCATT | 0.989 ± 0.05
GCCAGTGCTG | 1.017 ± 0.0069
GCCATAATTA | 0.981 ± 0.018

Sequence | switch fluorescence ratio
GCCATAGGAG | 0.987 ± 0.031
GCCATATGTG | 1.02 ± 0.015
GCCATGGTTG | 1.04 ± 0.067
GCCATGTGAA | 1.004 ± 0.0084
GCCATTTATT | 0.977 ± 0.024
GCCCAATAAG | 1.03 ± 0.025
GCCCATGGGT | 1.07 ± 0.12
GCCCATTGTG | 1.2 ± 0.072
GCCCCCTTCG | 1.08 ± 0.065
GCCCCGGGGA | 1.04 ± 0.011
GCCCCGGGGT | 1.03 ± 0.056
GCCCGGAGAC | 1.71 ± 0.025
GCCCGGATTT | 1 ± 0.047
GCCCGGGCGC | 1 ± 0.014
GCCCGTCCTG | 1.04 ± 0.015
GCCCTATAGG | 1.01 ± 0.011
GCCCTGATGC | 1.01 ± 0.051
GCCCTGCATG | 1.01 ± 0.052
GCCCTTAGCG | 1.06 ± 0.073
GCCGAAGGGT | 1.02 ± 0.03
GCCGAATTTG | 1.028 ± 0.0068
GCCGCAGGTC | 1.23 ± 0.083
GCCGCAGTTT | 1.31 ± 0.18

Sequence | switch fluorescence ratio
GCCGCCGTGT | 0.983 ± 0.031
GCCGGAGTGG | 0.982 ± 0.024
GCCGGATCTT | 1.01 ± 0.02
GCCGGATT | 1.01 ± 0.04
GCCGGGAGGA | 1.01 ± 0.032
GCCGGGAGGG | 0.985 ± 0.025
GCCGGGATCG | 0.97 ± 0.03
GCCGGGCAAC | 0.995 ± 0.037
GCCGGGCCGG | 0.9666 ± 0.0055
GCCGGGGTTA | 0.9966 ± 0.0088
GCCGGTTAGA | 0.998 ± 0.03
GCCGTAGCTG | 1.02 ± 0.037
GCCGTAGTCG | 1.03 ± 0.042
GCCGTATGCG | 0.992 ± 0.019
GCCGTCTAAG | 0.993 ± 0.022
GCCGTCTGGC | 1.02 ± 0.045
GCCGTGGAG | 1.0133 ± 0.00012
GCCGTGGGGC | 0.997 ± 0.061
GCCGTGTTTT | 1.006 ± 0.0018
